Measurements reported in the supplement of paper PMC10567573.

B1: CRYL1 (parent)
chain: RNALENIRKEMKLLEQAGSLKGSL

Variants of: B1
Test: protein stability index of a GFP-peptide fusion (GPS, HEK-293T) (PSI 1-6); higher = more stable
Conditions: c terminus: a fixed tail appended
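Further: lentivirally expressed fusions sorted by FACS into six bins by GFP to DsRed ratio, PSI derived from sequencing read proportions per bin multiplied by bin number.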

Protein stability index: each site, then its substitutions
L13: F 2.85 | Y 2.98 | A 3.89 | I 3.77 | D 4.12 | N 3.53 | P 4.52 | H 4.32 | K 3.87 | S 4.04 | G 4.1 | T 3.04
S23: Q 3.32 | Y 2.73 | A 2.9 | D 3.48 | R 3.07 | T 2.8 | E 3.84 | I 2.45 | N 3.22 | K 3.39 | L 1.87 | C 3.08 | V 2.2 | F 2.64
A17: Y 2.32 | V 3.58 | S 3.72 | D 3.97 | M 3.32 | I 2.71 | N 3.62 | K 3.51 | C 2.48 | W 2.33 | T 3.4 | F 2.22 | L 3.18 | H 3.06 | G 3.4 | P 3.5
N6: K 3.06 | P 3.4 | L 2.17 | W 2.23 | S 3.72 | Y 2.53 | G 3.79 | I 2.45 | C 2.33 | D 3.76 | E 3.2 | Q 3.03 | V 3.03 | A 3.66
M11: A 3.4 | Q 3.93 | T 4.37 | P 4.49 | G 4 | D 4.34 | W 2.21 | K 2.79 | H 4.45 | V 3.23 | F 3.13 | I 3.24 | Y 2.92 | S 4.92 | R 4.01 | E 4.45
I7: M 3.29 | K 5.08 | H 3.74 | P 4.22 | W 3.15 | T 3.9 | Y 3.67 | V 3.53 | S 3.69 | A 4.35 | D 4.75 | E 4.02 | L 2.48
E5: D 3.85 | R 3.06 | A 2.68 | S 2.78 | N 2.46 | G 3.21 | K 2.7 | F 2.5 | P 3.7 | L 2.55 | V 2.82
L24: E 4.08 | A 4.11 | V 3.66 | Y 3.08 | P 3.77 | T 3.47 | D 3.99 | W 3.16 | M 3.3 | I 3.2
R8: G 3.77 | V 3.25 | F 2.07 | D 4.49 | E 2.58 | A 3.72 | S 3.87 | Y 2.45 | I 1.84 | C 2.84 | T 4.19 | M 2.92 | Q 3.92 | K 3.04 | H 4.05
E15: Q 3.57 | H 2.77 | A 2.17 | R 3.63 | W 1.49 | N 3.16 | Y 2.21 | I 1.71 | K 2.48 | G 3.05 | P 3.37 | S 2.58 | D 3.63 | C 3.2 | L 2.16
Q16: D 4.1 | M 2.76 | C 3.35 | I 2.76 | L 2.06 | W 2.11 | K 3.02 | F 2.71 | R 2.86 | T 3.01 | H 3.25 | S 2.62 | P 3.3 | V 2.89
G18: Y 2.12 | R 3.23 | Q 3.48 | K 3.52 | A 4 | P 4.33 | D 3.64 | E 3.58 | M 2.12 | L 1.83 | I 1.98 | H 3.08 | T 3.39 | F 2.13 | W 2.37 | N 3.84 | V 2.8
K12: E 3.38 | Q 3.31 | Y 3.75 | S 3.53 | A 3.46 | C 3.43 | F 2.39 | D 4.23 | R 3.06 | L 3.55 | H 3.46 | W 1.72 | T 3.54 | M 2.89 | I 3.46
A3: V 2.83 | M 3.75 | W 2.57 | Y 2.56 | R 3.98 | Q 3.9 | G 3.34 | S 4.31 | T 4.32 | P 4.1 | C 2.45 | L 2.64 | F 2.6 | D 3.75
L14: C 3.39 | I 3.47 | D 4.36 | A 3.77 | R 3.93 | P 3.93 | F 3.19 | N 4.11 | S 3.77 | V 3.85 | W 3.17 | K 4.03
S19: M 2.56 | H 3.04 | G 3.12 | P 3.54 | Y 2.17 | I 2.62 | F 1.9 | K 3.42 | N 3.66 | T 3.22 | E 4.14 | Q 2.85 | R 3.08 | A 2.51 | W 2.03 | D 3.71 | V 2.66
N2: H 3.49 | I 2.69 | Y 2.48 | W 2.34 | A 3.1 | C 2.72 | K 2.83 | M 3.05 | S 2.85 | E 3.65 | G 3.57 | D 3.52 | F 2.87
G22: V 2.15 | W 2 | S 3.14 | F 2.65 | M 2.27 | H 2.94 | K 4.21 | A 3.21 | I 1.4 | T 3.77 | R 3.4 | C 2.65 | L 2.02 | N 3.04 | Q 3.36 | E 3.57
L4: M 3.37 | E 4.65 | F 2.92 | K 3.67 | T 4.37 | S 4.36 | I 3.21 | G 3.14 | A 3.93 | D 5 | Q 4.75 | W 3.16 | N 4.39 | C 4.05
E10: L 2.44 | Q 2.59 | N 2.89 | P 3.06 | W 2.89 | T 2.39 | K 2.31 | A 2.36 | F 1.61 | Y 1.08 | M 1.23 | D 3.33 | S 2.33 | I 1.92 | V 2.63
K9: H 2.9 | P 3.58 | F 1.95 | T 3.43 | G 3.61 | N 3.12 | W 1.8 | Y 2.78 | L 1.94 | S 3.61 | R 3.31 | M 2.32 | V 3.78 | C 2.29
R1: S 3.48 | E 3.65 | C 2.87 | T 3.87 | Y 3.04 | H 3.47 | Q 3.65 | N 3.83 | P 3.37 | I 2.69 | G 3.82 | M 3.11 | D 3.7
K21: L 2.37 | T 3.6 | W 2.17 | I 2.4 | S 3.46 | A 2.71 | Y 2.78 | P 2.79 | D 3.55 | Q 3.18 | R 2.68
L20: V 4.17 | R 4.17 | H 3.99 | Q 4.71 | W 2.9 | N 4.28 | C 3.65 | G 4.08 | D 4.16 | T 3.56 | S 3.98 | E 4.79 | M 2.84
